Experimental data reported in article PMC2767389.

Target: C1-100, C-terminally truncated C protein of HPIV3, C-terminally flag-tagged (human parainfluenza virus type 3)
Experiment: co-IP

Substance “HPIV3 L protein (viral RNA polymerase), non-tagged (from UniProt P12577 1-2233) (enzyme)” has a L/C ratio of 0.03.
